Test results taken from the supplement of paper PMC10724198.
± gives the standard deviation of the averaged measurements.

How the values were obtained:
Saccharomyces cerevisiae [1] = assay: protein stability index of tFT-peptide fusion (C-terminal peptide) (PSI (0-1 scale)); higher = more stable (slower turnover); settings: genetic background: wild type; temperature: 30 C
Saccharomyces cerevisiae [2] = assay: as above
Description: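 MPS profiling in S. cerevisiae of the tFT-X12 degron library: putative degron peptides plus stable controls, 12 aa, fused to the C-terminus of a sfGFP-mCherry timer. Cells are FACS-sorted into 8 mCherry/sfGFP bins and deep-sequenced. PSI runs from 0 (unstable) to 1 (stable). Backgrounds are wild type, das1Δ and doa10Δ at 30 °C, and wild type, das1Δ, cdc34-1 and cdc53-1 at 37 °C; 2-3 technical replicates each.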

[3] = genetic background: cdc34-1, temperature: 37 C
[4] = genetic background: cdc53-1, temperature: 37 C
[5] = genetic background: das1 deletion, temperature: 30 C
[6] = genetic background: das1 deletion, temperature: 37 C
[7] = genetic background: doa10 deletion, temperature: 30 C
[8] = genetic background: wild type, temperature: 30 C
[9] = genetic background: wild type, temperature: 37 C
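Note: PSI is a weighted mean of sequencing reads over stability bins, variants kept only with over 10 reads, mCherry proximal and sfGFP distal, peptide attached via GGGS linker.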

## YCAAVCFWGLYC
Saccharomyces cerevisiae [1]
  protein stability index: 0.242 ± 0.024
Saccharomyces cerevisiae [2]; [3]
  protein stability index: 0.522 ± 0.015
Saccharomyces cerevisiae [2]; [4]
  protein stability index: 0.654 ± 0.023
Saccharomyces cerevisiae [2]; [5]
  protein stability index: 0.541 ± 0.029
Saccharomyces cerevisiae [2]; [6]
  protein stability index: 0.668 ± 0.012
Saccharomyces cerevisiae [2]; [7]
  protein stability index: 0.13 ± 0.0034
Saccharomyces cerevisiae [2]; [8]
  protein stability index: 0.154 ± 0.013
Saccharomyces cerevisiae [2]; [9]
  protein stability index: 0.233 ± 0.011

## YDVQIEFCVVEV
Saccharomyces cerevisiae [1]
  protein stability index: 0.442 ± 0.0093
Saccharomyces cerevisiae [2]; [3]
  protein stability index: 0.601 ± 0.035
Saccharomyces cerevisiae [2]; [4]
  protein stability index: 0.57 ± 0.019
Saccharomyces cerevisiae [2]; [5]
  protein stability index: 0.365 ± 0.03
Saccharomyces cerevisiae [2]; [6]
  protein stability index: 0.5694 ± 0.0029
Saccharomyces cerevisiae [2]; [7]
  protein stability index: 0.347 ± 0.004
Saccharomyces cerevisiae [2]; [8]
  protein stability index: 0.379 ± 0.017
Saccharomyces cerevisiae [2]; [9]
  protein stability index: 0.547 ± 0.019

## YFFFFLHFNFAF
Saccharomyces cerevisiae [1]
  protein stability index: 0.2803 ± 0.002
Saccharomyces cerevisiae [2]; [3]
  protein stability index: 0.145 ± 0.062
Saccharomyces cerevisiae [2]; [4]
  protein stability index: 0.169 ± 0.036
Saccharomyces cerevisiae [2]; [5]
  protein stability index: 0.246 ± 0.023
Saccharomyces cerevisiae [2]; [6]
  protein stability index: 0.35 ± 0.0091
Saccharomyces cerevisiae [2]; [7]
  protein stability index: 0.313 ± 0.034
Saccharomyces cerevisiae [2]; [8]
  protein stability index: 0.225 ± 0.059
Saccharomyces cerevisiae [2]; [9]
  protein stability index: 0.267 ± 0.021

## YFFFYFFLLFHL
Saccharomyces cerevisiae [1]
  protein stability index: 0.375 ± 0.071
Saccharomyces cerevisiae [2]; [3]
  protein stability index: 0.265 ± 0.051
Saccharomyces cerevisiae [2]; [4]
  protein stability index: 0.272 ± 0.036
Saccharomyces cerevisiae [2]; [5]
  protein stability index: 0.332 ± 0.034
Saccharomyces cerevisiae [2]; [6]
  protein stability index: 0.45 ± 0.045
Saccharomyces cerevisiae [2]; [7]
  protein stability index: 0.416 ± 0.015
Saccharomyces cerevisiae [2]; [8]
  protein stability index: 0.3115 ± 0.0019
Saccharomyces cerevisiae [2]; [9]
  protein stability index: 0.429 ± 0.037

## YFWWLWMSFWVG
Saccharomyces cerevisiae [1]
  protein stability index: 0.4702 ± 0.0044
Saccharomyces cerevisiae [2]; [3]
  protein stability index: 0.4935 ± 0.0028
Saccharomyces cerevisiae [2]; [4]
  protein stability index: 0.53 ± 0.011
Saccharomyces cerevisiae [2]; [5]
  protein stability index: 0.43 ± 0.023
Saccharomyces cerevisiae [2]; [6]
  protein stability index: 0.59 ± 0.066
Saccharomyces cerevisiae [2]; [7]
  protein stability index: 0.419 ± 0.022
Saccharomyces cerevisiae [2]; [8]
  protein stability index: 0.403 ± 0.015
Saccharomyces cerevisiae [2]; [9]
  protein stability index: 0.539 ± 0.013

## YGWGFLFILTLM
Saccharomyces cerevisiae [1]
  protein stability index: 0.182 ± 0.01
Saccharomyces cerevisiae [2]; [3]
  protein stability index: 0.15 ± 0.032
Saccharomyces cerevisiae [2]; [4]
  protein stability index: 0.153 ± 0.03
Saccharomyces cerevisiae [2]; [5]
  protein stability index: 0.262 ± 0.038
Saccharomyces cerevisiae [2]; [6]
  protein stability index: 0.317 ± 0.0042
Saccharomyces cerevisiae [2]; [7]
  protein stability index: 0.14 ± 0.024
Saccharomyces cerevisiae [2]; [8]
  protein stability index: 0.101 ± 0.018
Saccharomyces cerevisiae [2]; [9]
  protein stability index: 0.151 ± 0.016

## YHGVYLARVLQA
Saccharomyces cerevisiae [1]
  protein stability index: 0.45 ± 0.041
Saccharomyces cerevisiae [2]; [3]
  protein stability index: 0.639 ± 0.0084
Saccharomyces cerevisiae [2]; [4]
  protein stability index: 0.677 ± 0.021
Saccharomyces cerevisiae [2]; [5]
  protein stability index: 0.604 ± 0.011
Saccharomyces cerevisiae [2]; [6]
  protein stability index: 0.69 ± 0.015
Saccharomyces cerevisiae [2]; [7]
  protein stability index: 0.243 ± 0.011
Saccharomyces cerevisiae [2]; [8]
  protein stability index: 0.286 ± 0.024
Saccharomyces cerevisiae [2]; [9]
  protein stability index: 0.501 ± 0.029

## YIFLLRFFFFFS
Saccharomyces cerevisiae [1]
  protein stability index: 0.358 ± 0.028
Saccharomyces cerevisiae [2]; [3]
  protein stability index: 0.367 ± 0.014
Saccharomyces cerevisiae [2]; [4]
  protein stability index: 0.435 ± 0.0084
Saccharomyces cerevisiae [2]; [5]
  protein stability index: 0.333 ± 0.042
Saccharomyces cerevisiae [2]; [6]
  protein stability index: 0.515 ± 0.03
Saccharomyces cerevisiae [2]; [7]
  protein stability index: 0.299 ± 0.011
Saccharomyces cerevisiae [2]; [8]
  protein stability index: 0.304 ± 0.044
Saccharomyces cerevisiae [2]; [9]
  protein stability index: 0.435 ± 0.022

## YILIKEVLYAVC
Saccharomyces cerevisiae [1]
  protein stability index: 0.274 ± 0.018
Saccharomyces cerevisiae [2]; [3]
  protein stability index: 0.169 ± 0.0061
Saccharomyces cerevisiae [2]; [4]
  protein stability index: 0.171 ± 0.0086
Saccharomyces cerevisiae [2]; [5]
  protein stability index: 0.182 ± 0.028
Saccharomyces cerevisiae [2]; [6]
  protein stability index: 0.281 ± 0.0066
Saccharomyces cerevisiae [2]; [7]
  protein stability index: 0.128 ± 0.023
Saccharomyces cerevisiae [2]; [8]
  protein stability index: 0.17 ± 0.024
Saccharomyces cerevisiae [2]; [9]
  protein stability index: 0.236 ± 0.0088

## YIRINNIYWKKS
Saccharomyces cerevisiae [1]
  protein stability index: 0.399 ± 0.029
Saccharomyces cerevisiae [2]; [3]
  protein stability index: 0.58 ± 0.016
Saccharomyces cerevisiae [2]; [4]
  protein stability index: 0.755 ± 0.024
Saccharomyces cerevisiae [2]; [5]
  protein stability index: 0.669 ± 0.023
Saccharomyces cerevisiae [2]; [6]
  protein stability index: 0.722 ± 0.012
Saccharomyces cerevisiae [2]; [7]
  protein stability index: 0.182 ± 0.0071
Saccharomyces cerevisiae [2]; [8]
  protein stability index: 0.227 ± 0.034
Saccharomyces cerevisiae [2]; [9]
  protein stability index: 0.536 ± 0.032

## YLFPHVRPKFPG
Saccharomyces cerevisiae [1]
  protein stability index: 0.488 ± 0.091
Saccharomyces cerevisiae [2]; [3]
  protein stability index: 0.693 ± 0.042
Saccharomyces cerevisiae [2]; [4]
  protein stability index: 0.747 ± 0.014
Saccharomyces cerevisiae [2]; [5]
  protein stability index: 0.658 ± 0.019
Saccharomyces cerevisiae [2]; [6]
  protein stability index: 0.7316 ± 0.0071
Saccharomyces cerevisiae [2]; [7]
  protein stability index: 0.667 ± 0.0085
Saccharomyces cerevisiae [2]; [8]
  protein stability index: 0.664 ± 0.016
Saccharomyces cerevisiae [2]; [9]
  protein stability index: 0.721 ± 0.015

## YLVSFVAFLRLF
Saccharomyces cerevisiae [1]
  protein stability index: 0.143 ± 0.19
Saccharomyces cerevisiae [2]; [3]
  protein stability index: 0.336 ± 0.02
Saccharomyces cerevisiae [2]; [4]
  protein stability index: 0.446 ± 0.013
Saccharomyces cerevisiae [2]; [5]
  protein stability index: 0.422 ± 0.025
Saccharomyces cerevisiae [2]; [6]
  protein stability index: 0.5418 ± 0.0026
Saccharomyces cerevisiae [2]; [7]
  protein stability index: 0.0967 ± 0.012
Saccharomyces cerevisiae [2]; [8]
  protein stability index: 0.0919 ± 0.018
Saccharomyces cerevisiae [2]; [9]
  protein stability index: 0.1 ± 0.019

## YMNLYKNVISVT
Saccharomyces cerevisiae [1]
  protein stability index: 0.408 ± 0.057
Saccharomyces cerevisiae [2]; [3]
  protein stability index: 0.473 ± 0.044
Saccharomyces cerevisiae [2]; [4]
  protein stability index: 0.47 ± 0.054
Saccharomyces cerevisiae [2]; [5]
  protein stability index: 0.378 ± 0.024
Saccharomyces cerevisiae [2]; [6]
  protein stability index: 0.522 ± 0.0072
Saccharomyces cerevisiae [2]; [7]
  protein stability index: 0.316 ± 0.021
Saccharomyces cerevisiae [2]; [8]
  protein stability index: 0.353 ± 0.024
Saccharomyces cerevisiae [2]; [9]
  protein stability index: 0.457 ± 0.0095

## YMVESVWVLLGT
Saccharomyces cerevisiae [1]
  protein stability index: 0.49 ± 0.016
Saccharomyces cerevisiae [2]; [3]
  protein stability index: 0.573 ± 0.029
Saccharomyces cerevisiae [2]; [4]
  protein stability index: 0.5755 ± 0.0052
Saccharomyces cerevisiae [2]; [5]
  protein stability index: 0.431 ± 0.032
Saccharomyces cerevisiae [2]; [6]
  protein stability index: 0.582 ± 0.0083
Saccharomyces cerevisiae [2]; [7]
  protein stability index: 0.381 ± 0.014
Saccharomyces cerevisiae [2]; [8]
  protein stability index: 0.421 ± 0.042
Saccharomyces cerevisiae [2]; [9]
  protein stability index: 0.564 ± 0.0079

## YPFIPLIVCGFF
Saccharomyces cerevisiae [1]
  protein stability index: 0.404 ± 0.02
Saccharomyces cerevisiae [2]; [3]
  protein stability index: 0.401 ± 0.028
Saccharomyces cerevisiae [2]; [4]
  protein stability index: 0.41 ± 0.0085
Saccharomyces cerevisiae [2]; [5]
  protein stability index: 0.344 ± 0.024
Saccharomyces cerevisiae [2]; [6]
  protein stability index: 0.4747 ± 0.00094
Saccharomyces cerevisiae [2]; [7]
  protein stability index: 0.395 ± 0.019
Saccharomyces cerevisiae [2]; [8]
  protein stability index: 0.338 ± 0.018
Saccharomyces cerevisiae [2]; [9]
  protein stability index: 0.448 ± 0.01

## YPVGAAFIRARA
Saccharomyces cerevisiae [1]
  protein stability index: 0.491 ± 0.011
Saccharomyces cerevisiae [2]; [3]
  protein stability index: 0.45 ± 0.016
Saccharomyces cerevisiae [2]; [4]
  protein stability index: 0.501 ± 0.021
Saccharomyces cerevisiae [2]; [5]
  protein stability index: 0.361 ± 0.036
Saccharomyces cerevisiae [2]; [6]
  protein stability index: 0.5378 ± 0.0026
Saccharomyces cerevisiae [2]; [7]
  protein stability index: 0.326 ± 0.0087
Saccharomyces cerevisiae [2]; [8]
  protein stability index: 0.377 ± 0.026
Saccharomyces cerevisiae [2]; [9]
  protein stability index: 0.5174 ± 0.0047

## YQHSRSGRNKII
Saccharomyces cerevisiae [1]
  protein stability index: 0.235 ± 0.012
Saccharomyces cerevisiae [2]; [3]
  protein stability index: 0.591 ± 0.12
Saccharomyces cerevisiae [2]; [4]
  protein stability index: 0.724 ± 0.033
Saccharomyces cerevisiae [2]; [5]
  protein stability index: 0.652 ± 0.028
Saccharomyces cerevisiae [2]; [6]
  protein stability index: 0.716 ± 0.021
Saccharomyces cerevisiae [2]; [7]
  protein stability index: 0.109 ± 0.0063
Saccharomyces cerevisiae [2]; [8]
  protein stability index: 0.117 ± 0.034
Saccharomyces cerevisiae [2]; [9]
  protein stability index: 0.122 ± 0.035

## YSRFALRPQLLV
Saccharomyces cerevisiae [1]
  protein stability index: 0.285 ± 0.011
Saccharomyces cerevisiae [2]; [3]
  protein stability index: 0.553 ± 0.051
Saccharomyces cerevisiae [2]; [4]
  protein stability index: 0.634 ± 0.013
Saccharomyces cerevisiae [2]; [5]
  protein stability index: 0.512 ± 0.025
Saccharomyces cerevisiae [2]; [6]
  protein stability index: 0.62 ± 0.029
Saccharomyces cerevisiae [2]; [7]
  protein stability index: 0.172 ± 0.0042
Saccharomyces cerevisiae [2]; [8]
  protein stability index: 0.184 ± 0.024
Saccharomyces cerevisiae [2]; [9]
  protein stability index: 0.327 ± 0.0056

## YSVNSLFCKVFG
Saccharomyces cerevisiae [1]
  protein stability index: 0.417 ± 0.032
Saccharomyces cerevisiae [2]; [3]
  protein stability index: 0.469 ± 0.012
Saccharomyces cerevisiae [2]; [4]
  protein stability index: 0.4777 ± 0.00052
Saccharomyces cerevisiae [2]; [5]
  protein stability index: 0.348 ± 0.031
Saccharomyces cerevisiae [2]; [6]
  protein stability index: 0.541 ± 0.0043
Saccharomyces cerevisiae [2]; [7]
  protein stability index: 0.3135 ± 0.0031
Saccharomyces cerevisiae [2]; [8]
  protein stability index: 0.361 ± 0.022
Saccharomyces cerevisiae [2]; [9]
  protein stability index: 0.5054 ± 0.002

## YTCFLFLLRCMT
Saccharomyces cerevisiae [1]
  protein stability index: 0.292 ± 0.003
Saccharomyces cerevisiae [2]; [3]
  protein stability index: 0.303 ± 0.048
Saccharomyces cerevisiae [2]; [4]
  protein stability index: 0.3521 ± 0.00065
Saccharomyces cerevisiae [2]; [5]
  protein stability index: 0.261 ± 0.044
Saccharomyces cerevisiae [2]; [6]
  protein stability index: 0.415 ± 0.0047
Saccharomyces cerevisiae [2]; [7]
  protein stability index: 0.1757 ± 0.00026
Saccharomyces cerevisiae [2]; [8]
  protein stability index: 0.198 ± 0.024
Saccharomyces cerevisiae [2]; [9]
  protein stability index: 0.294 ± 0.002
